# Laboratory results from paper PMC4634852.
# Target: Spindle-F (Spn-F) (UniProt Q9V9Y9)
# Test: anti-FLAG co-IP of differently tagged Spn-F
# Details: reference: wild-type Spn-F with Ik2; sites S53,S85,S172,S202,S264,S270,S325,S349
substance,measurement,value
Spindle-F (Spn-F) (from UniProt Q9V9Y9) SpnF-8A with Ik2,binding against the reference,stronger
